Measured values reported in US20230227572A1 (HEFEI TG IMMUNOPHARMA, published 2023).
Changes are numbered by the printed parent chain. Names and notes keep the numbering of the source.

T1: human PVRIG protein on the cell membrane surface (human, UniProt Q6DKI7 41-326)
T1 construct: Also used here for the natural PVRIG on NKG cells and human lymphocytes; also called 293T-human PVRIG cell line; PVRIG on NKG cell line
T1 sequence: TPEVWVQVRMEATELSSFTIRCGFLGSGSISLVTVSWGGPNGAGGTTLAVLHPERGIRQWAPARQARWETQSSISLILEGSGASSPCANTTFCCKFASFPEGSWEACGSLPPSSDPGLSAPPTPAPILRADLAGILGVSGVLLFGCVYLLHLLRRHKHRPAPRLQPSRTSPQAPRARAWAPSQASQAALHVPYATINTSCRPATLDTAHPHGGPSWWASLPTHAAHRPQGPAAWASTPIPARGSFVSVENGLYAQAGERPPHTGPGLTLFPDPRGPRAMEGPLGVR

B1: Antibody 2 (antibody, V domains shown)
VH: QVQLQQSGAELTKPGASVKISCKATGYTFSTFAIDWIKQRPGHGLAWIGEILPGGNNTNYNEKFKGKATFTADTSSNTAYMHLSSLTSEDSAVYYCSTYWFAYWGQGTLVTVSA
VL: DIVMTQSPSSLSVSAGEKVTMSCKSSQSLLNSGNQKNYLAWYQQKPGQPPKLLMYGASTRESGVPDRFTGSGSGTDFTLTISSVQAEDLAVYYCQNAHSYPPAFGAGTKLELK
notes: Murine monoclonal antibody from hybridoma ascites; also called murine antibody Antibody 2
B2: Antibody 1 (antibody, V domains shown)
VH: B1 VH with T12M, H43P, G55I
VL: B1 VL with S22T, A103T
notes: Murine monoclonal antibody from hybridoma ascites, purified on Protein G; also called murine antibody Antibody 1
B3: Antibody 3 (antibody, V domains shown)
VH: EVQLQQSGPELVKPGASMKISCKASGYSFTAYTMNWVKQSHGKNLEWIGLINPYNGGTSYNQKFKGKATLTGDKSSSTAYMELLSVTSEDSAVYFCAREGNYYGSRGDFDYWGQGTTLTVSS
VL: DILLTQSPAILSVSPGERVSFSCRASQTIVTNILWYQQRTNGSPRLLIRYASESISGIPSRFSGSGSGTDFTLSINSVESEDIAHYYCQQSHSWPFTFGSGTKLEIK
notes: Murine monoclonal antibody from hybridoma ascites; also called murine antibody Antibody 3
B4: Antibody 4-hu4 (antibody, human IgG4 S228P, kappa, V domains shown)
VH: EVQLVQSGAEVKKPGSSVKVSCKASGGTFSSFSIEWVRQAPGQGLEWIGEILPGSNSTNYNEKFKGRVTFTADESTSTAYMELSSLRSEDTAVYYCSSYWFAYWGQGTLVTVSS
VL: DIVMTQSPDSLAVSLGERATINCKSSQSLLNSGNQKNYLAWYQQKPGQPPKLLIYGASTRESGVPDRFSGSGSGTDFTLTISSLQAEDVAVYYCQNAHSYPPTFGQGTKLEIKR
notes: Humanized Antibody 4; heavy chain IgG4 with S228P already in the entry
B5: Antibody 4-hu1 (antibody, human IgG4 S228P, kappa, V domains shown)
VH: B4 VH with I48M, F70I, S97A, S98R
VL: B4 VL
notes: as for B4
B6: Antibody 4-hu2 (antibody, human IgG4 S228P, kappa, V domains shown)
VH: B4 VH with I48M, F70I
VL: B4 VL
notes: as for B4
B7: Antibody 4-hu3 (antibody, human IgG4 S228P, kappa, V domains shown)
VH: B4 VH with I48M
VL: B4 VL
notes: as for B4
B8: Antibody 4-hu5 (antibody, human IgG4 S228P, kappa, V domains shown)
VH: B4 VH with E74T, S77N
VL: B4 VL
notes: as for B4
B9: Antibody 4-hu6 (antibody, human IgG4 S228P, kappa, V domains shown)
VH: B4 VH with R67K, V68A, E74T, S77N
VL: B4 VL
notes: Humanized Antibody 4; heavy chain IgG4 with S228P already in the entry; also called Antibody 4-hub [sic]
B10: Antibody 4-hu7 (antibody, human IgG4 S228P, kappa, V domains shown)
VH: B4 VH with G27Y, I48M, F70I
VL: B4 VL
notes: as for B4
B11: Antibody 4-hu8 (antibody, human IgG4 S228P, kappa, V domains shown)
VH: B4 VH with G27Y, I48M
VL: B4 VL
notes: as for B9
B12: Antibody 4-hu10 (antibody, human IgG4 S228P, kappa, V domains shown)
VH: B4 VH with G27Y, E74T, S77N
VL: B4 VL
notes: as for B4
B13: Antibody 4-hu11 (antibody, human IgG4 S228P, kappa, V domains shown)
VH: B4 VH with G27Y, R67K, V68A, E74T, S77N
VL: B4 VL
notes: as for B4

Columns and labels:
[1] = target: T1, human PVRIG protein on the cell …; assay: flow cytometry on 293T-human PVRIG cells, AF647 goat anti-mouse IgG, percent positive cells
Method: The activity of murine antibodies from different clones in binding to human PVRIG protein on the cell membrane surface was evaluated by flow cytometry. The experimental procedure was as follows:
The 293T-human PVRIG cell line was harvested, washed with 1×PBS and resuspended, the cells were counted. Then […] were placed into each 1.5 ml Ep tube, the respective murine antibody (Antibody 1, Antibody 2, Antibody 3, or Antibody 4) was added at different concentrations, the mixture was incubated at 4° C. for 30 min, then washed with 1×PBS, and centrifuged at 3,500 rpm for 5 min to harvest the cells. The cell pellet was resuspended in 100 μl of 1×PBS, a AF647-labeled goat anti-mouse IgG antibody (available from Biolegend) was added, the mixture was incubated at 4° C. for 30 min in the dark, followed by washing twice with 1×PBS and harvesting the cells by centrifugation at 3,500 rpm for 5 min. The cell pellet was resuspended with 200 μl of 1×PBS and measured using a flow cytometer (BD LSR II).

[2] = target: T2, recombinant human PVRIG-human IgG1 Fc fusion protein (human); assay: SPR (Biacore), human PVRIG-human IgG1 Fc on chip, antibody in flow, 1:1 model
T2 construct: no linker is told; also called human PVRIG-Fc fusion protein
Method: The binding kinetics and dissociation equilibrium constant (KD) of the antibodies of the present disclosure to human PVRIG were determined using the surface plasmon resonance (Biacore) assay. Briefly, a CMS chip was coated with human PVRIG-human IgG1 Fc fusion protein, and after being blocked, antibody solutions of different concentrations passed through the CMS chip at a fixed flow rate and bound to antigen for 2 min, followed by transfer to dissociation buffer for 6 min for determination of the dissociation rate. The kinetics were analyzed using a 1:1 binding model.

[3] = target: T2, recombinant human PVRIG-human IgG1 Fc …; assay: ELISA, plate coated with human PVRIG-human IgG1 Fc at 1.0 µg/ml, HRP goat anti-mouse IgG, OD450
Method: The activity of the murine antibodies from different clones in binding to the human PVRIG-Fc fusion protein was evaluated by ELISA. The experimental procedure was as follows:
The recombinant human PVRIG-human IgG1 Fc fusion protein was diluted to 1.0 μg/ml in 1×PBS (phosphate buffer), the dilution was plated onto a 96-well ELISA plate overnight at 4° C. by 100 μl/well, the plate was washed 3 times with PBST (0.05% Tween20-PBS) and blocked with 1% BSA, followed by incubation at 37° C. for 2 h. The plate was washed 3 times with PBST, and murine antibodies (Antibody 1, Antibody 2, Antibody 3, or Antibody 4) diluted in multiple ratios were respectively added to set 8 concentrations, and the mixture was incubated at 37° C. for 1 h using mouse IgG1 (available from Biolegend) as a negative control at 100 μl/well. The plate was washed 3 times with PBST, and 100 μl of horseradish peroxidase (HRP)-labeled goat anti-mouse IgG antibody (available from BOSTER, 1:10,000 dilution) was added to each well, and the mixture was incubated at 37° C. for 1 h. After washing, 100 μl of TMB substrate solution was added to each well for developing for 10 to 15 min in the dark, 100 μl of stop solution (2M H2SO4) was added to each well, the solution was measured with a microplate reader immediately after the reaction stopped, and the absorbance at 450 nm (OD450) was read.
Target sequence in this assay (chain, as listed by the source limits assumed): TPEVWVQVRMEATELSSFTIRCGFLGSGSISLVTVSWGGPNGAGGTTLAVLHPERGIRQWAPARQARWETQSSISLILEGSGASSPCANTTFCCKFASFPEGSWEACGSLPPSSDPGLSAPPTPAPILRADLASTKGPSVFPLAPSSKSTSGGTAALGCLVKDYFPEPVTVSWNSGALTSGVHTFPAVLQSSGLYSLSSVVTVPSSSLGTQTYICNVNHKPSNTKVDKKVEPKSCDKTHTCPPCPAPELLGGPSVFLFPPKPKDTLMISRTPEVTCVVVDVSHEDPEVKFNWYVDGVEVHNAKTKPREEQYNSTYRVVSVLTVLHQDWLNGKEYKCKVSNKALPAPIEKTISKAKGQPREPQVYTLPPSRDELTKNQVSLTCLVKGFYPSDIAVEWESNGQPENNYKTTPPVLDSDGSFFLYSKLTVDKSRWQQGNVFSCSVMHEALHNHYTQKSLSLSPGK

[4] = target: T1, human PVRIG protein on the cell …; assay: flow cytometry on 293T-human PVRIG cells, AF647 mouse anti-human IgG-Fc, percent positive cells
Method: The activity of the humanized antibodies in binding to human PVRIG was evaluated by flow cytometry in the experiment.
The 293T-human PVRIG cell line was harvested, and washed and resuspended with 1×PBS to count the cells. Then 2×10^5 cells were placed into each 1.5 ml Ep tube, the respective humanized antibody was added at different concentrations, the mixture was incubated at 4° C. for 30 min, then washed with 1×PBS, and centrifuged at 3,500 rpm for 5 min to harvest the cells. The cell pellet was resuspended in 100 μl of 1×PBS, a AF647-labeled mouse anti-human IgG-Fc antibody (available from Biolegend) was added, the mixture was incubated at 4° C. for 30 min in the dark, followed by washing twice with 1×PBS and harvesting the cells by centrifugation at 3,500 rpm for 5 min. The cell pellet was resuspended with 200 μl of 1×PBS and measured using a flow cytometer (BD LSR II), and the analysis statistical results were shown in FIG. 16. It can be seen that all the humanized antibodies were ablet to specifically bind to the human PVRIG protein on the cell membrane surface.

Binder | EC50 (read off the curve) [1] [µg/mL] | Kd [2] [nM] | koff [2] [s⁻¹] | kon [2] [M⁻¹ s⁻¹] | EC50 (read off the curve) [3] [µg/mL] | EC50 (read off the curve) [4] [µg/mL]
B1 | ~0.03 | 1.51 | 0.000137 | 90500 | ~0.03 | –
B2 | ~0.02 | 0.316 | 4.19e-05 | 133000 | ~0.02 | –
B3 | ~0.1 | 0.99 | 8.82e-05 | 89100 | ~0.02 | –
B4 | – | 0.236 | 4.44e-05 | 188000 | – | ~0.02
B5 | – | 0.118 | 2.32e-05 | 197000 | – | –
B6 | – | 0.239 | 6.38e-05 | 266000 | – | –
B7 | – | 0.0916 | 1.95e-05 | 212000 | – | –
B8 | – | 0.015 | 3.54e-06 | 236000 | – | –
B9 | – | ≤ 0.00356 | ≤ 1e-06 | 281000 | – | –
B10 | – | ≤ 0.00361 | ≤ 1e-06 | 277000 | – | –
B11 | – | ≤ 0.00505 | ≤ 1e-06 | 198000 | – | ~0.001
B12 | – | ≤ 0.004 | ≤ 1e-06 | 250000 | – | ~0.0005
B13 | – | ≤ 0.00422 | ≤ 1e-06 | 237000 | – | ~0.003
